From US20160144027A1 (SAMSUNG ELECTRONICS, published 2016)

Biological target: T1, human c-Met/Fc fusion protein (R&D Systems) (human, UniProt P08581 25-932)
T1 construct: Purchased reagent coated on ELISA plates; also called human c-Met/Fc protein; not shown: Fc part of the purchased fusion
Test: ELISA, hybridoma culture on plate-coated human c-Met/Fc fusion protein (2 ug/mL)
Experimental: Human c-Met/Fc fusion protein was seeded in an amount of 50 μL (2 μg/mL)/well to microtiter plates and allowed to adhere to the surface of each well. The antibody that remained unbound was removed by washing.
The hybridoma cell culture obtained in Reference Example 1.1.2 was added in an amount of 50 μL to each well of the plates and incubated for 1 hour. The cells remaining unreacted were washed out with a sufficient amount of Tris-buffered saline and Tween 20 (TBST). Goat anti-mouse IgG-horseradish peroxidase (HRP) was added to the plates and incubated for 1 hour at room temperature. The plates were washed with a sufficient amount of TBST, followed by reacting the peroxidase with a substrate (OPD). Absorbance at 450 nm was measured on an ELISA reader.

T1 sequence (P08581 25-932): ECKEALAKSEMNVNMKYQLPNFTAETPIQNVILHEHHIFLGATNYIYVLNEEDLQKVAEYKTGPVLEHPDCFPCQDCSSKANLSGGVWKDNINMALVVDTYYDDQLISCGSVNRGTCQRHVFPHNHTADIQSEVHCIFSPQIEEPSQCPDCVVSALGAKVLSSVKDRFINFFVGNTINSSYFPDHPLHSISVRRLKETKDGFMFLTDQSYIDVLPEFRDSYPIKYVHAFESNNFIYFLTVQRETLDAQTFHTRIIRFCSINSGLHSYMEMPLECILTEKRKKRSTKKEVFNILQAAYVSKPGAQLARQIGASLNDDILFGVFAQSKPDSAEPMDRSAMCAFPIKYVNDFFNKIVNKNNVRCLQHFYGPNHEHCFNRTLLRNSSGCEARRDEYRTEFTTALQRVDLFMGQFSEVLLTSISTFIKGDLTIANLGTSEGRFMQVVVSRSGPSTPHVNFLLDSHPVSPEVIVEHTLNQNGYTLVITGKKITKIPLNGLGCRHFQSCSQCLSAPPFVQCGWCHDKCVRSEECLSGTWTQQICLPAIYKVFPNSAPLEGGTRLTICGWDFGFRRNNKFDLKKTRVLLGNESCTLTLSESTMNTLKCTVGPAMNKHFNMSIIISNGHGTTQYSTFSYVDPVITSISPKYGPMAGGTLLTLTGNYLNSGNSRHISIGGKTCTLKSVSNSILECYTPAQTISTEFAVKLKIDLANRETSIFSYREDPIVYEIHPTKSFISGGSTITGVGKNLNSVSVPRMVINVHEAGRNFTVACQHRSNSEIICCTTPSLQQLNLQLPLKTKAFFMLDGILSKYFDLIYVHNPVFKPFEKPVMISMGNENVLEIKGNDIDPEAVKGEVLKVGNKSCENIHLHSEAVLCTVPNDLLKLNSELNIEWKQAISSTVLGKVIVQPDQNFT

B1: AbF46, a mouse antibody to c-Met (antibody, V domains shown)
VH: EVKLVESGGGLVQPGGSLRLSCATSGFTFTDYYMSWVRQPPGKALEWLGFIRNKANGYTTEYSASVKGRFTISRDNSQSILYLQMDTLRAEDSATYYCARDNWFAYWGQGTLVTVSA
VL: DILMTQSPSSLTVSAGEKVTMSCKSSQSLLASGNQNNYLAWHQQKPGRSPKMLIIWASTRVSGVPDRFIGSGSGTDFTLTINSVQAEDLAVYYCQQSYSAPLTFGAGTKLELK
notes: Mouse monoclonal antibody from the single hybridoma clone chosen by ELISA; In the screening assay it was present as hybridoma culture supernatant; also called monoclonal antibody of hybridoma KCLRF-BP-00220
binding result: binds
